The record followed here is patent publication US20250011363A1, “OPTIMIZED SHORTENED PEPTIDE THAT BINDS TO ACETYLCHOLINE RECEPTOR, AND USE THEREOF” (SKINMED CO., LTD., priority 2021, published 2025).

In the assay the target is acetylcholine receptor. Nature of the assay: SPR, AchR immobilised on CM5 chip, peptide 10 uM. In general terms: Surface plasmon resonance follows binding to a sensor surface in real time, without labels.

Take KIDDRK [6mer-2-672]: the Binding affinity (RU) stood at 20 RU.

RMKAKK [6mer-2-661] came in with a Binding affinity (RU) of 29 RU.

The molecule RPMFRK [6mer-2-688] displayed a Binding affinity (RU) of 13 RU.

On to KFHNRK [6mer-2-685], for which the Binding affinity (RU) is 15 RU.

For the molecule KYCMKR [6mer-2-631], the Binding affinity (RU) was 16 RU.

KECVRR [6mer-2-635] yielded a Binding affinity (RU) of 11 RU.

As for KTWEKK [6mer-2-686], the Binding affinity (RU) is 21 RU.

Take KADPRR [6mer-2-656]: the Binding affinity (RU) is 11 RU.

In turn, RYTNKR [6mer-2-622] displayed a Binding affinity (RU) of 13 RU.

On to RKWHKR [6mer-2-670], for which the Binding affinity (RU) worked out at 33 RU.

The molecule KEWWRR [6mer-2-678] showed a Binding affinity (RU) of 32 RU.

KNADRR [6mer-2-651]: the Binding affinity (RU) stood at 21 RU.

Molecule KIEMKR [6mer-2-653] registered a Binding affinity (RU) of 20 RU.

For RIKVKK [6mer-2-645], the Binding affinity (RU) is 15 RU.

The molecule RTTMRK [6mer-2-652] showed a Binding affinity (RU) of 16 RU.

KKTARR [6mer-2-627] had a Binding affinity (RU) of 33 RU.

Molecule KPMDRR [6mer-2-666] gave a Binding affinity (RU) of 25 RU.

REPNRR [6mer-2-644] came in with a Binding affinity (RU) of 12 RU.

Turning to RYTMKK [6mer-2-684], the Binding affinity (RU) was found to be 14 RU.

RCWAKR [6mer-2-638] displayed a Binding affinity (RU) of 30 RU.

Molecule RYPDRK [6mer-2-648] came in with a Binding affinity (RU) of 23 RU.

Consider REEFRR [6mer-2-641], for which the Binding affinity (RU) came out at 12 RU.

For RKSFKR [6mer-2-628], the Binding affinity (RU) came to 30 RU.

Molecule RPPVRK [6mer-2-637] showed a Binding affinity (RU) of 32 RU.

With RHTGRR [6mer-2-620], the Binding affinity (RU) is 33 RU.

KIPNKR [6mer-2-659] showed a Binding affinity (RU) of 22 RU.

On to KHTVKK [6mer-2-639], for which the Binding affinity (RU) amounted to 23 RU.

RAAPRR [6mer-2-646]: the Binding affinity (RU) was 32 RU.

In the case of KHAHRR [6mer-2-623], the Binding affinity (RU) turned out to be 13 RU.

Consider KPPIRK [6mer-2-624], for which the Binding affinity (RU) was determined as 33 RU.

For the molecule RFCGRK [6mer-2-673], the Binding affinity (RU) was 23 RU.

On to RYEHRK [6mer-2-634], for which the Binding affinity (RU) came out at 33 RU.

For KKWERK [6mer-2-674], the Binding affinity (RU) worked out at 26 RU.

KCAERR [6mer-2-665] registered a Binding affinity (RU) of 18 RU.

KADGRK [6mer-2-687] displayed a Binding affinity (RU) of 16 RU.

The molecule RPPDRR [6mer-2-619] had a Binding affinity (RU) of 26 RU.

Regarding KFKKKR [6mer-2-640], the Binding affinity (RU) is 21 RU.

For the molecule KNSEKK [6mer-2-626], the Binding affinity (RU) came to 33 RU.

As to RHEPKR [6mer-2-621], the Binding affinity (RU) worked out at 32 RU.

In turn, KYDIKR [6mer-2-632] gave a Binding affinity (RU) of 12 RU.

In turn, KHDMRR [6mer-2-667] had a Binding affinity (RU) of 25 RU.

For the molecule KNMWRK [6mer-2-669], the Binding affinity (RU) was 15 RU.

Molecule RFCWKK [6mer-2-629] registered a Binding affinity (RU) of 32 RU.

The molecule KCCWKK [6mer-2-664] displayed a Binding affinity (RU) of 11 RU.

In the case of KIWFRR [6mer-2-655], the Binding affinity (RU) was determined as 31 RU.

In turn, RFPDKK [6mer-2-625] showed a Binding affinity (RU) of 33 RU.

With RNMERR [6mer-2-682], the Binding affinity (RU) was found to be 33 RU.

The molecule RFCNKK [6mer-2-668] returned a Binding affinity (RU) of 13 RU.

Turning to KTEIRK [6mer-2-683], the Binding affinity (RU) worked out at 33 RU.

On to KTENKK [6mer-2-642], for which the Binding affinity (RU) was 16 RU.

RMKWRK [6mer-2-675]: the Binding affinity (RU) amounted to 14 RU.

The molecule RYSAKK [6mer-2-679] registered a Binding affinity (RU) of 20 RU.

Consider KCTAKK [6mer-2-676], for which the Binding affinity (RU) was determined as 14 RU.

KANPKK [6mer-2-643]: the Binding affinity (RU) was determined as 12 RU.

Turning to KHHKKR [6mer-2-618], the Binding affinity (RU) was 12 RU.

The molecule RFKARK [6mer-2-650] had a Binding affinity (RU) of 18 RU.

As to KAHPKK [6mer-2-662], the Binding affinity (RU) amounted to 11 RU.

Molecule RDWIRR [6mer-2-671] came in with a Binding affinity (RU) of 27 RU.

As to KNHGKR [6mer-2-680], the Binding affinity (RU) turned out to be 15 RU.

RYWVKK [6mer-2-658] showed a Binding affinity (RU) of 23 RU.

RENWKK [6mer-2-677] gave a Binding affinity (RU) of 28 RU.

In the case of KYAVKR [6mer-2-633], the Binding affinity (RU) is 17 RU.

The molecule KMAPKR [6mer-2-636] showed a Binding affinity (RU) of 21 RU.

Consider RKHERK [6mer-2-657], for which the Binding affinity (RU) was found to be 32 RU.

Take KFAGRR [6mer-2-663]: the Binding affinity (RU) was 24 RU.

Molecule KFDVRK [6mer-2-649] yielded a Binding affinity (RU) of 31 RU.

RMPEKR [6mer-2-654] had a Binding affinity (RU) of 20 RU.

Molecule KTEPKR [6mer-2-647] had a Binding affinity (RU) of 19 RU.

RDTWRR [6mer-2-681]: the Binding affinity (RU) was determined as 33 RU.

For the molecule RHKDRK [6mer-2-660], the Binding affinity (RU) was 16 RU.

For the molecule RYAFRR [6mer-2-630], the Binding affinity (RU) came to 27 RU.
